Laboratory results as given in patent publication US20230250147A1, “GLP-1R AGONISTIC PEPTIDES WITH REDUCED ACTIVITY” (SANOFI, priority 2020, published 2023).
Marks after values point to notes of the source that are not given here. Values belong to the molecule of their own block, whether it stands above or below them. No end group written: not given here.

How the values were obtained:
Mouse GLP-1R = biological target: T1, Mouse GLP-1R (Mus musculus, UniProt O35659); assay: HTRF cAMP assay in HEK-293 cells, mouse GLP-1R; format: cell-based
T1 construct: expressed in transfected cells; host or cells: HEK-293
T1 sequence (O35659 22-463): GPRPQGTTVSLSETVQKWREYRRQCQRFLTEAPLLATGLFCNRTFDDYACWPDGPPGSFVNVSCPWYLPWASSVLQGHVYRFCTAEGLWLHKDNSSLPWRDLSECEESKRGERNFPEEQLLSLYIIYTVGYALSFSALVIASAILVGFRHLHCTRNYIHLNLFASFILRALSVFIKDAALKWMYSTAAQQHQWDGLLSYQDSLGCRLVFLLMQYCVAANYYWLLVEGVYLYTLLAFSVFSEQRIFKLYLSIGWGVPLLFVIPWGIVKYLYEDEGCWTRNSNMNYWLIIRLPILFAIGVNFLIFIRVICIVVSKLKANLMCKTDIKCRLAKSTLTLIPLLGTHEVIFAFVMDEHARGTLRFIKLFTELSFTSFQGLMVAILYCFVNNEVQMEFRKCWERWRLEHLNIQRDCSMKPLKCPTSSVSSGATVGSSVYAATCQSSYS
Protocol: (§1) Recombinant HEK-293 cells were grown in T175 culture flasks placed at 37° C. to near confluence in medium (DMEM with 10% FBS) and collected in 2 mL vials in cell culture medium containing 10% DMSO in concentrations of 1-5×10^7 cells/mL. Each vial contained 1.8 mL cell suspension. The vials were slowly frozen to −80° C. in an isopropanol chamber, and then transferred to liquid nitrogen for long term storage.
(§2) Prior to their use, frozen cells were thawed quickly at 37° C., washed with 20 mL cell buffer (1×HBSS; 20 mM HEPES, 0.1% BSA) and centrifuged for 5 minutes at 900 rpm. Cells were resuspended in assay buffer (cell buffer plus 2 mM IBMX) and adjusted to a cell density of 1×10^6 cells/mL. For measurement, 5 μL cell suspension (final 5×10^3 cells/well) and 5 μL of test compound were added to a well of a 384-well plate, followed by incubation for 30 minutes at room temperature. […] The cAMP content of cells was determined using a kit from Cisbio Corp. (cat. no. 62AM4PEC) based on Homogenous Time Resolved Fluorescence (HTRF).

Monkey GLP-1R = biological target: T2, Monkey GLP-1R (Macaca fascicularis, UniProt F8V479); assay: HTRF cAMP assay in HEK-293 cells, monkey GLP-1R; format: cell-based
T2 construct: expressed in transfected cells; host or cells: HEK-293
Protocol: as §1, §2

Human GLP-1R = biological target: T3, Human GLP-1R (Homo sapiens, UniProt P43220); assay: HTRF cAMP assay in HEK-293 cells, human GLP-1R; format: cell-based
T3 construct: expressed in transfected cells; host or cells: HEK-293
Protocol: as §1, §2

[1] = biological target: T4, human FGFR1c together with human beta-Klotho (KLB) (human, UniProt P11362 22-822; Q86Z14 1-1044); assay: cell-based or functional assay
[2] = biological target: T4, human FGFR1c together with human …; assay: cell-based or functional assay; remark: listed apart in the source
[3] = Thermal shift assay (DSF, Sypro Orange); format: physicochemical; settings: Data generated via DSF
Description: In addition, for some proteins a thermal shift assay was applied to analyze thermostability in imitation of differential scanning fluorimetry (DSF or ThermoFluor™) assays (Ahmad S. et al. (2012) Protein Science 21: 433-446; Pantoliano et al. (2001) J. Biomol. Screen 6: 429-440; Niesen et al. (2007) Nat. Protoc. 2: 2212-21). This assay is based on the observation that hydrophobic fluorescent dyes, such as Sypro™ Orange (Life Technologies, cat. No. S6651), increase their fluorescence when they bind to hydrophobic patches on a protein.
Proteins were tested by mixing a solution of each protein in PBS (Gibco) with a 160× solution of Sypro™Orange (diluted in water from a 5000×DMSO stock as provided by the supplier). The sample volume was adjusted to 20 μL with PBS. Typical conditions contained 0.8 mg/mL protein and 8× Sypro™Orange in the final mixture, but protein concentrations could be varied between 0.4 mg/mL and 1.2 mg/mL. Samples were dispensed in 96-well PCR plates (BioRad Semi-Skirt 96 white) and shortly centrifuged to remove air bubbles. […] For excitation and quantification of fluorescence, filters for wavelengths of 485 nm and 575 nm were chosen. […] In curves of fluorescence intensity against temperature, the inflection point was chosen as the measure for the melting temperature (Tm).

[4] = Pharmacokinetics after single subcutaneous administration in mouse; format: in vivo, female C57BI/6 mice; settings: FGF21 intact assay; 0.3 mg/kg subcutaneous
Protocol: Plasma concentrations and pharmacokinetic parameters of GLP-1 RA/FGF21 Fc fusion proteins were determined after single subcutaneous administration of 0.3 mg/kg in solution to female C57BI/6 mice or male Cynomolgus monkeys using three different methods. Blood samples were obtained at time points from 30 minutes to 168 hours after dosing. […]
a.) Bioanalytical Screening Method for Quantification of the Intact FGF21 Part of the GLP-1 RA/FGF21 Fc Fusion Proteins Plasma samples were analyzed for the intact FGF21 part of the fusion proteins with an ELISA kit (F1231-K01, Eagle Biosciences, USA). […] For the detection of this immunocomplex, the well was then incubated with a substrate solution in a timed reaction and then measured in a spectrophotometric microplate reader. […]
b.) Bioanalytical Screening Method for Quantification of the Intact Full-Length Fusions Proteins The concentration of the full-length GLP-1RA/FGF21 Fc fusion proteins in plasma were determined utilizing an ELISA method. […] Following washing 3 times with 300 μL PBS-T 150 μL read buffer was added to the wells. […]
c.) Bioanalytical Screening Method for Quantification of the Intact GLP-1 Part of the GLP-1 FGF21 Fc Fusion Proteins Plasma samples were analyzed for the intact GLP-1 part of the fusion proteins with a GLP-1 ELISA method. […]

T4 sequence (P11362 22-822, chain 1 of 2): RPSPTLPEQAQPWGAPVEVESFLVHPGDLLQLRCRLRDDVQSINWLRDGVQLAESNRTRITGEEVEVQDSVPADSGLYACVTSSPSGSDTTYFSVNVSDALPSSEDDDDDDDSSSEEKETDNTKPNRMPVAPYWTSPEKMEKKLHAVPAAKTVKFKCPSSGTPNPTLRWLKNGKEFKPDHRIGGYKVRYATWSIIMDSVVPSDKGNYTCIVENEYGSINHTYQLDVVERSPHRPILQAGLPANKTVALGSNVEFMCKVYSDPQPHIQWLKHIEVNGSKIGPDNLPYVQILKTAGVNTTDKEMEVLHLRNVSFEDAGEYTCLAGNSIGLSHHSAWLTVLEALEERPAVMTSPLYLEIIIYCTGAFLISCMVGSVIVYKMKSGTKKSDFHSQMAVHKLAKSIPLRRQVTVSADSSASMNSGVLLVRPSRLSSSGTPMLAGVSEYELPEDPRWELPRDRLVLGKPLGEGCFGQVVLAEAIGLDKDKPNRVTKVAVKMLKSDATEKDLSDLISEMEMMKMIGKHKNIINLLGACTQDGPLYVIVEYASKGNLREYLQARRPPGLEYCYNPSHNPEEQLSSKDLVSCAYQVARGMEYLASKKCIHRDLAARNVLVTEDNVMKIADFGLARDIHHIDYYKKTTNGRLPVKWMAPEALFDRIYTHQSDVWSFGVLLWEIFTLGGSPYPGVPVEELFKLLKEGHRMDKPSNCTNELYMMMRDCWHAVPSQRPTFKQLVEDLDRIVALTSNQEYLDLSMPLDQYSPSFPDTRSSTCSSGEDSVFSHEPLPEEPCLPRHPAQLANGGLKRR
T4 sequence (Q86Z14 whole entry, chain 2 of 2): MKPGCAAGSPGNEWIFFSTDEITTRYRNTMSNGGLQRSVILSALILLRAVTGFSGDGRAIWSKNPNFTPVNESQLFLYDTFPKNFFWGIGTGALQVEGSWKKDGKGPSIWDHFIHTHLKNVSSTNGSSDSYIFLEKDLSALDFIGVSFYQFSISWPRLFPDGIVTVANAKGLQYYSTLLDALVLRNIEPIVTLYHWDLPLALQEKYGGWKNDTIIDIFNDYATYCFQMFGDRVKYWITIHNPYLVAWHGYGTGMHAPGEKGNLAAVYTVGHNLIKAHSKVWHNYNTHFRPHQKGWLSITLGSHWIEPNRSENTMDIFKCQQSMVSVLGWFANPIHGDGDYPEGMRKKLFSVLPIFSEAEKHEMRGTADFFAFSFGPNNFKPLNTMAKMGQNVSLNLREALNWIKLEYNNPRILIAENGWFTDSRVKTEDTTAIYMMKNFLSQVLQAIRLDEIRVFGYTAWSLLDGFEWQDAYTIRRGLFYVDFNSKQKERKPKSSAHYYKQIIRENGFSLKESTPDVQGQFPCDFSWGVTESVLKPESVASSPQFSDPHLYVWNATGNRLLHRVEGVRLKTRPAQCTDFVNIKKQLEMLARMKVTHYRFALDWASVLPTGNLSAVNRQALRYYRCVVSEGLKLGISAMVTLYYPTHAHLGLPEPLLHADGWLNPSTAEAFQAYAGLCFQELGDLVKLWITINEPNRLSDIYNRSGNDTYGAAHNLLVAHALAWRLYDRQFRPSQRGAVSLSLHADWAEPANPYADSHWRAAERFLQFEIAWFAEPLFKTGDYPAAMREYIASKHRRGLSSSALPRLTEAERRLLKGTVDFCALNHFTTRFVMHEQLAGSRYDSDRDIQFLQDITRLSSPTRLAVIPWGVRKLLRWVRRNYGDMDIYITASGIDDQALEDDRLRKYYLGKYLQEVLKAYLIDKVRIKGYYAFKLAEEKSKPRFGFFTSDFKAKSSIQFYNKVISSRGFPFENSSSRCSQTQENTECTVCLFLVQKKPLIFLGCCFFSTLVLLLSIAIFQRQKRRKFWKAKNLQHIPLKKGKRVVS
T2 sequence (F8V479 24-463): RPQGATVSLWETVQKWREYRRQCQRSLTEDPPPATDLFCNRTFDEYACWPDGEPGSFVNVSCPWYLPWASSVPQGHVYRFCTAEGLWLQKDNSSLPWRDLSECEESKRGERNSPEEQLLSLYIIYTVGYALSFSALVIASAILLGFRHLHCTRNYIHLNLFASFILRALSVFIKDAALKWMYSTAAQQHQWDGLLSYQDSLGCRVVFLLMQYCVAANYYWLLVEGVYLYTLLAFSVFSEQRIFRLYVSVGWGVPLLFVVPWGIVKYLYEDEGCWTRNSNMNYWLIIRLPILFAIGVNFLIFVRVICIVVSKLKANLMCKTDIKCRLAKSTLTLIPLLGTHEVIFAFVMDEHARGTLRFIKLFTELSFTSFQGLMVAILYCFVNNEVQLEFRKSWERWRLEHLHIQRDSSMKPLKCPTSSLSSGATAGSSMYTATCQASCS
T3 sequence (P43220 24-463): as the sequence (F8V479 24-463) above, with N112S, S120F, G202S, V205L, F237L, R241W, V249I counted along it

EC50 (Mouse GLP-1R): 7.65 pM | EC50 (Monkey GLP-1R): 5.74 pM | EC50 (Human GLP-1R): 0.0105 nM
Molecule: GHGEGTFTSDKSKQLEEEAVRLFIEWLKAGGPKKIRYS-NH2 [compound 278]

pERK ICW EC50 [1]: 0.17 nmol/L | pFGFR ICW EC50 [2]: 4.49 nmol/L
B1: G-FGF21 (mature human wild-type FGF21 with an additional N-terminal Gly) (ligand)
chain: GHPIPDSSPLLQFGGQVRQRYLYTDDAQQTEAHLEIREDGTVGGAADQSPESLLQLKALKPGVIQILGVKTSRFLCQRPDGALYGSLHFDPEACSFRELLLEDGYNVYQSEAHGLPLHLPGNKSPHRDPAPRGPARFLPLPGLPPAPPEPPGILAPQPPDVGSSDPLSMVGPSQGRSPSYAS

B2: 252 (protein)
chain: GHPIPDSSPLLQFGGQVRQRYLYTDDAQQTEAHLEIREDGTVGGAADQSPESLLQLKALKPGVIQILGVKTSRFLCQRPDGALYGSLHFDPEACSFRELLLEDGYNVYQSEAHGLPLHLPGNKSPHRDPAPRGPARFLPLPGLPPAPPEPPGILAPQPPDVGSSDPLSMVGPSQGRSPSYAS
modifications: G-FGF21
Tm (melting temperature) [3]: 43.1* ° C. | t1/2 mouse [4]: 42 min
